In patent US20020119153A1:

Legend:
[1] = target: VEGF:sFlk-1 complex (human; mouse) (UniProt P15692); experiment: capture ELISA: biotinylated sFlk-1 complexed with VEGF titrated onto wells coated with the antibody; concentration giving 50% maximal binding; extrapolated value
[2] = target: recombinant human VEGF165 (human) (UniProt P15692); experiment: blocking ELISA, negative control: 1 nM VEGF bound to wells coated with VEGFR2 (sFlk-1) with 100 nM control IgG of irrelevant specificity (100x) present; bound VEGF detected with rabbit anti-VEGF A-20; the number measures VEGF:VEGFR2 binding, not binding of the control IgG to VEGF
Sequence of recombinant human VEGF165 (human) (P15692 other isoform, or with tags, fused parts or gaps): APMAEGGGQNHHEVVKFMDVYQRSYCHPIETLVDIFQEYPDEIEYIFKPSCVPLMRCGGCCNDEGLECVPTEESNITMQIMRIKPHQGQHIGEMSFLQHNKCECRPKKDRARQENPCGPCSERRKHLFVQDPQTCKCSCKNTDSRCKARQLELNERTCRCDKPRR

[3] = target: recombinant human VEGF165 (human) (UniProt P15692); experiment: blocking ELISA, negative control: 1 nM VEGF bound to wells coated with VEGFR2 (sFlk-1) with 1000 nM control IgG of irrelevant specificity (1000x) present; bound VEGF detected with rabbit anti-VEGF A-20; the number measures VEGF:VEGFR2 binding, not binding of the control IgG to VEGF
[4] = target: recombinant human VEGF165 (human) (UniProt P15692); experiment: blocking ELISA, negative control: 1 nM VEGF bound to wells coated with VEGFR1 (Flt-1/Fc) with 100 nM control IgG of irrelevant specificity (100x) present; bound VEGF detected with rabbit anti-VEGF A-20; the number measures VEGF:VEGFR1 binding, not binding of the control IgG to VEGF
[5] = target: recombinant human VEGF165 (human) (UniProt P15692); experiment: blocking ELISA, negative control: 1 nM VEGF bound to wells coated with VEGFR1 (Flt-1/Fc) with 1000 nM control IgG of irrelevant specificity (1000x) present; bound VEGF detected with rabbit anti-VEGF A-20; the number measures VEGF:VEGFR1 binding, not binding of the control IgG to VEGF

Sequence of VEGF:sFlk-1 complex (human; mouse) (P15692 other isoform, or with tags, fused parts or gaps limits assumed, chain 1 of 2): as the sequence (P15692 other isoform, or with tags, fused parts or gaps) above
Sequence of VEGF:sFlk-1 complex (human; mouse) (P35918 20-762 limits assumed, chain 2 of 2, further chain): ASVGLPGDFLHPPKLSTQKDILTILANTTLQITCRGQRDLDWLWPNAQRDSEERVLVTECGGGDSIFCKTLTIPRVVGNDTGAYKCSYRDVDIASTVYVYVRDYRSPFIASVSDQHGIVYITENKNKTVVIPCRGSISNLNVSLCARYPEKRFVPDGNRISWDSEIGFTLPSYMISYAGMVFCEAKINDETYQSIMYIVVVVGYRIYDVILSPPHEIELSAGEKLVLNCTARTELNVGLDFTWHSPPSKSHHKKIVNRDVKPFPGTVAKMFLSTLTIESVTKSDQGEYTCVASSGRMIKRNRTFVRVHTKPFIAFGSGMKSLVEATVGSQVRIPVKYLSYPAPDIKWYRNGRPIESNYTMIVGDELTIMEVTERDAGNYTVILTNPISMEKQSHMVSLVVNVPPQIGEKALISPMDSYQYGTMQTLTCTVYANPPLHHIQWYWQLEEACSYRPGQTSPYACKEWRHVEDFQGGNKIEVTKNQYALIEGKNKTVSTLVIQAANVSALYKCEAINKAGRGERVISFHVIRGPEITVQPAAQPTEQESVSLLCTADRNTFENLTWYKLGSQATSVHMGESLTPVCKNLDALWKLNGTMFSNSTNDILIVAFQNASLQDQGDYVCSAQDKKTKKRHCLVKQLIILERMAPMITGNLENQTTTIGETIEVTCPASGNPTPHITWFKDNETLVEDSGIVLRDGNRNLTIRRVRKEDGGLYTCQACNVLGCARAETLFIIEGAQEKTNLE

| Substance | EC50 [1] | % of VEGF alone [2] | % of VEGF alone [3] | % of VEGF alone [4] | % of VEGF alone [5] |
| --- | --- | --- | --- | --- | --- |
| A4.6.1, mouse anti-human VEGF monoclonal antibody (Genentech) | 500 nM | – | – | – | – |
| control IgG of irrelevant specificity (antibody) | – | 96% | 93% | 98% | 92% |
| irrelevant IgM (negative control) (antibody) | 600 nM | – | – | – | – |
